Assay results taken from patent US20240092919A1 (Ablynx, published 2024).
“And” between values parts separate entries of the source, which are not always exact repeats. Equal values may be shown once. Values belong to the binder of their own block, whether it stands above or below them.

What was measured:
human GPC3 (recombinant) = molecular target: T1, human GPC3 (recombinant) (human, UniProt P51654 25-559); experiment: SPR, ProteOn XPR36; GPC3 captured on anti-His antibody
T1 construct: also called human Glypican-3
Procedure: (§1) Recombinant GPC3 proteins were captured on a GLC Sensor Chip (Biorad) immobilized with THE anti-His antibody (Genscript, cat no ABIN387699) via amine coupling, using EDC and NHS chemistry (running buffer: HBS-EP+, pH7.4). Purified ISVDs were injected for 2 minutes (flow rate 45 μL/min) at different concentrations (between 0.3 nM and 1000 nM) and dissociation was followed for 900 s. Regeneration was performed by injecting 10 mM Glycine-HCl (pH 1.5) for 1 minute (flow rate 45 μL/min). […] Processed sensorgrams were analyzed based on the 1:1 interaction model (Langmuir binding model) using ProteOn Manager 3.1.0 (Version 3.1.0.6) software.

[1] = molecular target: T2, cyno GPC3 (recombinant, in house produced) (cynomolgus, UniProt A0A2K5VK50 24-558); experiment: as above
T2 construct: also called cynomolgus Glypican-3
Procedure: as §1

human GPC3 on cells [2] = molecular target: T3, human GPC3 on cells (human, UniProt P51654 25-554); experiment: cell-based or functional assay
[3] = molecular target: T4, cynomolgus TCR on primary cynomolgus T cells (cynomolgus); experiment: flow cytometry competition on primary cynomolgus T cells; competitor Flag-tagged T017000623 at EC30
T4 construct: whole, on cells; also called cyno TCRαβ
Procedure: (§2) T cells (human T cells obtained as described in Example 3 and cyno T cells purchased from LPT laboratory, Germany) were thawed and counted on the day of the assay and diluted to a concentration of 1E+06 cells/mL, before adding 75 μL to the wells of a V-bottom 96-well plate (Greiner, cat no 651180). Cells were washed once with cold FACS buffer, before adding 25 μL Nb and 25 μL competitor to the wells. […] Cells were resuspended and plates were incubated at 4° C. for 90 minutes, after which plates were washed twice in cold FACS buffer. […] Plates were washed twice in cold FACS buffer. […] Plates were washed twice in cold FACS buffer. Cells were resuspended in 55 μL 1/1000 diluted Propidium Iodide (Sigma-Aldrich, cat no P4170) in FACS buffer before acquiring data on the MACSQuant X (Miltenyi biotec).

human GPC3 on cells [4] = molecular target: T3, human GPC3 on cells; experiment: flow cytometry, binding to Huh-7 cells
[5] = molecular target: T5, cyno GPC3 on CHO-Flp-In cells (cynomolgus, UniProt A0A2K5VK50 24-553); experiment: flow cytometry, binding to CHO-Flp-In cells overexpressing cyno GPC3
T5 construct: whole, on cells; also called CHO cyGPC3

[6] = molecular target: T6, human TCR on primary human T cells (human, UniProt P01848 1-140; P01850 1-176); experiment: flow cytometry competition on primary human T cells; competitor Flag-tagged T017000624 at EC30
T6 construct: whole, on cells; also called human TCRαβ
T6 TCR alpha (looked up): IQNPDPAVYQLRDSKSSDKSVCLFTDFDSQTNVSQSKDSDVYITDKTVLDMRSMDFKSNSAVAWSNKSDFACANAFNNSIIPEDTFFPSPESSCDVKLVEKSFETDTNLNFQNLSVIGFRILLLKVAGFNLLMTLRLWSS
T6 TCR beta (looked up): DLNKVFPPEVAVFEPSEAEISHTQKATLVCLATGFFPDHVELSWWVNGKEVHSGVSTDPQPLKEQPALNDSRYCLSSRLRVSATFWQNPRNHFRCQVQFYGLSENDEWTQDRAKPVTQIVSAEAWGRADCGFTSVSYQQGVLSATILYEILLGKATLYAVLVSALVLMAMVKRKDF
Procedure: as §2

human GPC3 on cells [7] = molecular target: T3, human GPC3 on cells; experiment: flow cytometry, binding to CHO-Flp-In cells overexpressing human GPC3
[8] = molecular target: T6, human TCR on primary human T cells; experiment: cell-based or functional assay
[9] = molecular target: T4, cynomolgus TCR on primary cynomolgus T …; experiment: cell-based or functional assay
[10] = molecular target: T7, Cynomolgus TCR(AEA41865/AEA41866)-zipper protein (cynomolgus); experiment: SPR, ProteOn XPR36; TCR-zipper protein immobilised by amine coupling
T7 construct: also called cyTCR-zipper; cyTCR(AEA41865)-zipper
T7 TCR alpha: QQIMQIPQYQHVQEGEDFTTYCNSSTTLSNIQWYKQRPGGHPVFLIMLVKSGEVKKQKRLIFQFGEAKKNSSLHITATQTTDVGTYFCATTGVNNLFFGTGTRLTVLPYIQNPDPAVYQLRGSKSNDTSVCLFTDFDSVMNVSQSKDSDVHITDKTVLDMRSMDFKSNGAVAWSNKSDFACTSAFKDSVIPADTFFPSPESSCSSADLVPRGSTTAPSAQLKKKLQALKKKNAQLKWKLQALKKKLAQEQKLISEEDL
T7 TCR beta: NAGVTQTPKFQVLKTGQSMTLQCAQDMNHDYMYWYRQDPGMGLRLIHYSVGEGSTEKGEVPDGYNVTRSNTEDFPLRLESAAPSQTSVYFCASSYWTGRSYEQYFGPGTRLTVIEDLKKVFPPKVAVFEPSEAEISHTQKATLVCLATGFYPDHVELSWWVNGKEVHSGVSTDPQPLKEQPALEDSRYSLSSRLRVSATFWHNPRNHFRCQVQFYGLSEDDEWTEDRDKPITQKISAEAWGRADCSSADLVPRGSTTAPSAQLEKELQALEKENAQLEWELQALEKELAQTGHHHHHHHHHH
Procedure: Purified ISVDs were injected for 2 minutes (flow rate 45 μL/min) at different concentrations (between 0.2 nM and 200 nM) and dissociation was followed for 900 s. Regeneration was performed by injecting 3 M MgCl₂ for 3 minutes (flow rate 90 μL/min). […] Processed sensorgrams were analyzed based on the 1:1 interaction model (Langmuir binding model) using ProteOn Manager 3.1.0 (Version 3.1.0.6) software.

human GPC3 on cells [11] = molecular target: T8, human GPC3 on cells (human, UniProt P51654 25-554); experiment: flow cytometry on cells; upper end, tied by Table 44 to CHO huGPC3
T8 construct: whole, on cells; also called CHO huGPC3; CHO-Flp-In cells overexpressing human GPC3

cyno GPC3 on cells = molecular target: T9, cyno GPC3 on cells (cynomolgus monkey, UniProt A0A2K5VK50 24-553); experiment: flow cytometry on cells; lower end, tied by Table 44 to CHO cyGPC3
T9 construct: whole, on cells; also called CHO cyGPC3; CHO-Flp-In cells overexpressing cyno GPC3

human CD123 on cells [12] = molecular target: T10, human CD123 on cells (human, UniProt P26951 19-378); experiment: flow cytometry on CHO cells transfected with human CD123
T10 construct: also called CHO human CD123; CHO hu CD123
T10 sequence (P26951 19-378 limits assumed): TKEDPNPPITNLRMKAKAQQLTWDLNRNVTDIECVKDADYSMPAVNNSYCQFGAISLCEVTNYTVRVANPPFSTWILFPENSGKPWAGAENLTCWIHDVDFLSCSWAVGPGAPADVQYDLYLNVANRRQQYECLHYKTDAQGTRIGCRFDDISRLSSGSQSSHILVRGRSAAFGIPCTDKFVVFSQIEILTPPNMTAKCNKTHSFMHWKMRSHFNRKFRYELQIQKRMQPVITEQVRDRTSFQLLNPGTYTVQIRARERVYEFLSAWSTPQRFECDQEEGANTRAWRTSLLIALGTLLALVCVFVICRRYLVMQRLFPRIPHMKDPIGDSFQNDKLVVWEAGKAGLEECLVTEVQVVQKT

[13] = molecular target: T11, cynomolgus CD123 on cells (cynomolgus); experiment: flow cytometry on HEK Flp-In cyCD123 cells; FLAG-tagged ISVD, anti-FLAG + APC goat anti-mouse; MFI (median APC) [panel HEK Flp-In cyCD123 cells]
T11 construct: whole, on cells; also called HEK293 cyno CD123; cyCD123

human CD123 on cells [14] = molecular target: T10, human CD123 on cells; experiment: flow cytometry on CHO Flp-In huCD123 cells; FLAG-tagged ISVD, anti-FLAG + APC goat anti-mouse; MFI (median APC) [panel CHO Flp-In huCD123 cells]
[15] = molecular target: T11, cynomolgus CD123 on cells; experiment: flow cytometry on HEK293 cells transfected with cynomolgus CD123
human CD33 on cells = molecular target: T12, human CD33 on cells (human, UniProt P20138 18-364); experiment: flow cytometry on CHO cells transfected with human CD33
T12 construct: whole, on cells; also called CHO hu CD33; huCD33
T12 sequence (P20138 18-364): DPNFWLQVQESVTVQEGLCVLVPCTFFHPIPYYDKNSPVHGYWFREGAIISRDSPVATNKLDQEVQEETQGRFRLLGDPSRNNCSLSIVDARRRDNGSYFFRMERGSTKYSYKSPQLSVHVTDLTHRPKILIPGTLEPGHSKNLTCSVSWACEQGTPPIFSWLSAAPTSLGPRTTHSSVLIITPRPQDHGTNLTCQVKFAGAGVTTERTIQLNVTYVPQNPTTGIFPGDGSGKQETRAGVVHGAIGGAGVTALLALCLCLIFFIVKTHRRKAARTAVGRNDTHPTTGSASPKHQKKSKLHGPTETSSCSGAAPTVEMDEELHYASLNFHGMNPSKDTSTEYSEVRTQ

cynomolgus CD33 on cells = molecular target: T13, cynomolgus CD33 on cells (cynomolgus); experiment: flow cytometry on CHO cells transfected with cynomolgus CD33
T13 construct: whole, on cells; also called CHO cy CD33; cyCD33

Kd (human GPC3 (recombinant)): < 0.0056 nM
Kd [1]: < 0.0059 nM
IC50 (M) BxPC-3, xCELLigence human TDC assay, E:T 15:1, 60 h (human GPC3 on cells [2]): > 1e-07 M
IC50 (M) HepG2, xCELLigence human TDC assay, E:T 15:1, 60 h (human GPC3 on cells [2]): 1.15e-10 M
IC50 (M) Huh-7, xCELLigence human TDC assay, E:T 15:1, 60 h (human GPC3 on cells [2]): 1.16e-10 M
IC50 (M) NCI-H23, xCELLigence human TDC assay, E:T 15:1, 60 h (human GPC3 on cells [2]): > 1e-07 M
IC50 (M) NCI-H661, xCELLigence human TDC assay, E:T 15:1, 60 h (human GPC3 on cells [2]): 1.14e-10 M
IC50 [3]: 250 nM
EC50 (human GPC3 on cells [4]): 1.25 nM
EC50 [5]: 1.11 nM
IC50 [6]: 170 nM
EC50 (human GPC3 on cells [7]): 1.82 nM
Primary hu T cells IC50 (M), xCELLigence TDC assay on Huh-7, E:T 15:1, 60 h [8]: 7.59e-11 M
Primary cy T cells IC50 (M), xCELLigence TDC assay on Huh-7, E:T 15:1, 60 h [9]: 2.29e-10 M
Kd [10]: 5.4 nM
B1: A022600424 (other)
chain: DVQLVESGGGVVQPGGSLRLSCVASGYVHKINFYGWYRQAPGKEREKVAHISIGDQTDYADSAKGRFTISRDESKNTVYLQMNSLRPEDTAAYYCRALSRIWPYDYWGQGTLVTVSSGGGGSEVQLVESGGGVVQPGGSLRLSCAASGFTFSSFAMTWVRRPPGKGLEWVATITNKGVTSYADSVKGRFTISRDNAKNTLYLQMNSLRPEDTALYICANARRTGPRAPTDIGSYRGQGTLVTVSSGGGGSGGGSEVQLVESGGGVVQPGGSLRLSCAASGSIFRSVFSSSTMEWYRQAPGKKRELVARIAPGEGTYYGALYADSVKGRFTISRDNAKNTVYLQMNSLRPEDTALYYCASGVAWGQGTLVTVSSGGGGSGGGSEVQLVESGGGVVQPGGSLRLSCAASGFTFRSFGMSWVRQAPGKGPEWVSSISGSGSDTLYADSVKGRFTISRDNSKNTLYLQMNSLRPEDTALYYCTIGGSLSRSSQGTLVTVSSA
notes: also called T017000680-5GS-A022600351-9GS-A022600314-9GS-ALB23002-A

EC50 (human GPC3 on cells [11]): 1 to 2 nM
EC50 (cyno GPC3 on cells): 1 to 2 nM
B2: A022600424 (other)
chain: DVQLVESGGGVVQPGGSLRLSCVASGYVHKINFYGWYRQAPGKEREKVAHISIGDQTDYADSAKGRFTISRDESKNTVYLQMNSLRPEDTAAYYCRALSRIWPYDYWGQGTLVTVSSGGGGSEVQLVESGGGVVQPGGSLRLSCAASGFTFSSFAMTWVRRPPGKGLEWVATITNKGVTSYADSVKGRFTISRDNAKNTLYLQMNSLRPEDTALYICANARRTGPRAPTDIGSYRGQGTLVTVSSGGGGSGGGSEVQLVESGGGVVQPGGSLRLSCAASGSIFRSVFSSSTMEWYRQAPGKKRELVARIAPGEGTYYGALYADSVKGRFTISRDNAKNTVYLQMNSLRPEDTALYYCASGVAWGQGTLVTVSSGGGGSGGGSEVQLVESGGGVVQPGGSLRLSCAASGFTFRSFGMSWVRQAPGKGPEWVSSISGSGSDTLYADSVKGRFTISRDNSKNTLYLQMNSLRPEDTALYYCTIGGSLSRSSQGTLVTVSSA
notes: as for B1

EC50 (human CD123 on cells [12]): 0.31 nM and 0.2 nM
EC50 (read off the curve) [13]: ~0.3 nM
EC50 (read off the curve) (human CD123 on cells [14]): ~0.7 nM
EC50 [15]: 0.8 nM
B3: monovalent CD123 building block (SEQ ID NO: 462) (VHH)
VHH: EVQLVESGGGVVQPGGSLRLSCAASGVIFSGNVMGWYRRQAPGKEREWVAAIAEGGSILYRDSVKGRFTISRDNAKNTVYLQMNSLRPEDTALYYCNSHPPVLPYWGQGTLVTVSS

EC50 (human CD33 on cells): 6.2 nM and 5.5 nM and 7.7 nM
EC50 (cynomolgus CD33 on cells): 5.7 nM and 12 nM
B4: monovalent CD33 building block (SEQ ID NO: 463) (VHH)
VHH: EVQLVESGGGVVQPGGSLRLSCAASGGVFRLNSMGWFRQAPGKQRELVAIITSDGDTNYADSVKGRFTISRDQAKNTVYLQMNSLRPEDTALYYCQITYSTSSYSFPINTWGQGTLVTVSS
